In patent publication US6429305 (ACADEMIA SINICA, dated 2002):

B1: recombinant ayu (Plecoglossus altivelis) growth hormone (ligand)
chain: MSENQRLFSIAVNRAQHLHLLAQKMFNDFEGNLSPDDRRQMNKIFLQDFCNSDSIISPVDKHETQKSSVQKLLHISFRLVESWEYPSQALSSSLSLSRFSEIPLKLTDLKLGIDTILRGTQDGLLSLEDNEAQQLPPYENYYQNLGGDDNIHRSYELLACFKKDMHKVETYLTVAKCRRSLEANCTLLEHHHHHH
B2: recombinant yellow grouper (Epinephelus awoara) growth hormone (ligand)
chain: MITDGQRLFSIAVSRVQHLHLLAQRLFSDFESSLQTEEQRQLNKIFLQDFCNSDYIISPIDKHETQRSSVLKLLSISYRLVESWEFPSRSLSGGSAPRNQIFPKLSELKTGILLLIRANQDGAELFPDSSALQLAPYGNYYQSLGADESLRRTYELLACFKKDMHKVETYLTVAKCRLSPEANCTLLEHHHHHH

Biological target: growth hormone receptor on ZFL cells (zebrafish liver cell line) (zebrafish)
Test: cell-based or functional assay

Row | Binder | increase in cell proliferation relative to no growth hormone added (MTS-formazan conversion assay, ZFL cells)
1 | B1 | 118%
2 | B2 | 58.3%
